According to the supplement of paper PMC9112550, “Optimization of the antimicrobial peptide Bac7 by deep mutational scanning” (BMC Biology, 2022):

Tested on: Escherichia coli TOP10
Test: shrunken log2 fold change of peptide-encoding DNA abundance (4.5 h post-induction vs induction); higher = less antimicrobial activity (less host growth inhibition)
Conditions: time post-induction: 4.5 h; library: site-saturation at positions 5, 18, 19, 20
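Note: peptides expressed intracellularly from a pBAD plasmid library in pooled LB shake-flask culture, induced with 0.3% L-arabinose, DNA abundance read by NGS, three biological replicates, DESeq2 with apeglm shrinkage.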

Row | Sequence | shrunken log2 fold change
1 | RRIRDRPPRLPRPRPRPLLEPRP | 0.31
2 | RRIRWRPPRLPRPRPRPTVYPRP | 0.116
3 | RRIRYRPPRLPRPRPRPRCPPRP | -0.167
4 | RRIRARPPRLPRPRPRPWREPRP | -0.0619
5 | RRIRARPPRLPRPRPRPVGDPRP | 0.515
6 | RRIRERPPRLPRPRPRPFHEPRP | -0.0823
7 | RRIRDRPPRLPRPRPRPLNNPRP | -0.305
8 | RRIRERPPRLPRPRPRPTLYPRP | -0.184
9 | RRIRNRPPRLPRPRPRPTECPRP | -0.0689
10 | RRIRRRPPRLPRPRPRPIDRPRP | -0.0459
11 | RRIRTRPPRLPRPRPRPPHHPRP | -0.149
12 | RRIRIRPPRLPRPRPRPQIFPRP | 0.0997
13 | RRIRVRPPRLPRPRPRPECDPRP | 0.247
14 | RRIRCRPPRLPRPRPRPEYSPRP | -0.38
15 | RRIRWRPPRLPRPRPRPKEGPRP | 0.538
16 | RRIRVRPPRLPRPRPRPQGTPRP | -0.289
17 | RRIRWRPPRLPRPRPRPASLPRP | 0.0313
18 | RRIRIRPPRLPRPRPRPATTPRP | -0.145
19 | RRIRNRPPRLPRPRPRPYDNPRP | -0.897
20 | RRIRFRPPRLPRPRPRPTVLPRP | -0.0624
21 | RRIRARPPRLPRPRPRPQFQPRP | 0.0187
22 | RRIRRRPPRLPRPRPRPLMWPRP | 0.163

Row | Sequence | shrunken log2 fold change
23 | RRIRDRPPRLPRPRPRPYDHPRP | -0.361
24 | RRIRCRPPRLPRPRPRPKFRPRP | -0.375
25 | RRIRNRPPRLPRPRPRPYFAPRP | -0.198
26 | RRIRTRPPRLPRPRPRPGVAPRP | 0.639
27 | RRIRCRPPRLPRPRPRPWNEPRP | -0.705
28 | RRIRRRPPRLPRPRPRPYVQPRP | 0.0531
29 | RRIRERPPRLPRPRPRPCNDPRP | -0.19
30 | RRIRHRPPRLPRPRPRPWYGPRP | -0.779
31 | RRIRSRPPRLPRPRPRPEPGPRP | 0.197
32 | RRIRFRPPRLPRPRPRPHPAPRP | 0.0971
33 | RRIRCRPPRLPRPRPRPYAKPRP | -0.671
34 | RRIRRRPPRLPRPRPRPTCPPRP | 0.415
35 | RRIRLRPPRLPRPRPRPGFTPRP | -0.191
36 | RRIRSRPPRLPRPRPRPELTPRP | 0.316
37 | RRIRMRPPRLPRPRPRPTPCPRP | 0.746
38 | RRIRRRPPRLPRPRPRPAMEPRP | 0.019
39 | RRIRNRPPRLPRPRPRPKKGPRP | 0.0558
40 | RRIRLRPPRLPRPRPRPEKIPRP | -0.223
41 | RRIRRRPPRLPRPRPRPKNVPRP | -0.00431
42 | RRIRNRPPRLPRPRPRPMMTPRP | -0.312
43 | RRIRGRPPRLPRPRPRPGKHPRP | 0.384
44 | RRIRGRPPRLPRPRPRPQCIPRP | 0.438

Row | Sequence | shrunken log2 fold change
45 | RRIRPRPPRLPRPRPRPREIPRP | 0.44
46 | RRIRGRPPRLPRPRPRPGVVPRP | 1.43
47 | RRIRNRPPRLPRPRPRPVAPPRP | 0.153
48 | RRIRLRPPRLPRPRPRPVWGPRP | 0.0435
49 | RRIRDRPPRLPRPRPRPYVYPRP | -0.0147
50 | RRIRWRPPRLPRPRPRPANNPRP | -0.205
51 | RRIRPRPPRLPRPRPRPAAYPRP | 0.0551
52 | RRIRNRPPRLPRPRPRPIIPPRP | -0.0623
53 | RRIRTRPPRLPRPRPRPHKLPRP | -0.236
54 | RRIRGRPPRLPRPRPRPRCYPRP | 0.555
55 | RRIRPRPPRLPRPRPRPFWQPRP | 0.00477
56 | RRIRYRPPRLPRPRPRPIREPRP | -0.271
57 | RRIRIRPPRLPRPRPRPRERPRP | 0.688
58 | RRIRERPPRLPRPRPRPWHSPRP | -0.252
59 | RRIRVRPPRLPRPRPRPREAPRP | 0.0545
60 | RRIRVRPPRLPRPRPRPCNWPRP | -0.327
61 | RRIRSRPPRLPRPRPRPGLAPRP | 0.444
62 | RRIRIRPPRLPRPRPRPANPPRP | -0.29
63 | RRIRNRPPRLPRPRPRPYHDPRP | -0.165
64 | RRIRSRPPRLPRPRPRPASNPRP | -0.101
65 | RRIRQRPPRLPRPRPRPVVMPRP | 0.0928
66 | RRIRRRPPRLPRPRPRPKYYPRP | -0.199

Row | Sequence | shrunken log2 fold change
67 | RRIRYRPPRLPRPRPRPICMPRP | -0.018
68 | RRIRIRPPRLPRPRPRPENQPRP | -0.473
69 | RRIRIRPPRLPRPRPRPCCVPRP | -0.726
70 | RRIRGRPPRLPRPRPRPQNRPRP | 0.0342
71 | RRIRHRPPRLPRPRPRPDSRPRP | -0.00136
72 | RRIRERPPRLPRPRPRPRCMPRP | -0.355
73 | RRIRGRPPRLPRPRPRPSVWPRP | 0.622
74 | RRIRMRPPRLPRPRPRPRSQPRP | 0.108
75 | RRIRGRPPRLPRPRPRPSSGPRP | 0.0321
76 | RRIRIRPPRLPRPRPRPFPSPRP | -0.953
77 | RRIRGRPPRLPRPRPRPKFRPRP | 0.112
78 | RRIRYRPPRLPRPRPRPIGWPRP | 0.11
79 | RRIRMRPPRLPRPRPRPQTQPRP | 2.46
80 | RRIRCRPPRLPRPRPRPYYEPRP | -1.27
81 | RRIRGRPPRLPRPRPRPMRDPRP | 0.947
82 | RRIRFRPPRLPRPRPRPQISPRP | -0.217
83 | RRIRLRPPRLPRPRPRPGYVPRP | -0.17
84 | RRIRVRPPRLPRPRPRPDWWPRP | -0.0161
85 | RRIRLRPPRLPRPRPRPATYPRP | -0.212
86 | RRIRGRPPRLPRPRPRPLPRPRP | 1.5
87 | RRIRSRPPRLPRPRPRPETIPRP | 0.148
88 | RRIRHRPPRLPRPRPRPYSNPRP | -0.392

Row | Sequence | shrunken log2 fold change
89 | RRIRMRPPRLPRPRPRPAKYPRP | -0.111
90 | RRIRYRPPRLPRPRPRPTWVPRP | 0.18
91 | RRIRFRPPRLPRPRPRPRVMPRP | 0.138
92 | RRIRMRPPRLPRPRPRPPWDPRP | 0.931
93 | RRIRGRPPRLPRPRPRPETCPRP | 0.613
94 | RRIRNRPPRLPRPRPRPFVAPRP | -0.41
95 | RRIRMRPPRLPRPRPRPCQYPRP | 0.0396
96 | RRIRPRPPRLPRPRPRPVEMPRP | 0.0666
97 | RRIRWRPPRLPRPRPRPAGKPRP | 0.0305
98 | RRIRQRPPRLPRPRPRPENEPRP | 0.0608
99 | RRIRSRPPRLPRPRPRPPTYPRP | -0.243
100 | RRIRWRPPRLPRPRPRPLSHPRP | 0.000856
101 | RRIRARPPRLPRPRPRPMDTPRP | 0.143
102 | RRIRDRPPRLPRPRPRPESWPRP | 1.58
103 | RRIRIRPPRLPRPRPRPGINPRP | -0.603
104 | RRIRQRPPRLPRPRPRPGYRPRP | -0.354
105 | RRIRFRPPRLPRPRPRPWNTPRP | -1.19
106 | RRIRSRPPRLPRPRPRPVQDPRP | 0.339
107 | RRIRARPPRLPRPRPRPAQRPRP | 0.695
108 | RRIRMRPPRLPRPRPRPPQHPRP | 0.817
109 | RRIRTRPPRLPRPRPRPHHHPRP | -0.924
